Measured values from patent US8680041B2, “Genetic variations associated with tumors” (Genentech, Inc., priority 2006, dated 2014).

Key:
p110alpha E545K = biological target: T1, p110alpha E545K (Homo sapiens, UniProt P42336, E545K); assay: Co-immunoprecipitation of HA-tagged p85α with p110α in transfected Cos 7 cells; format: binding; parameters: key: “yes” (“Y”); “no” (“N”); settings: HA bead immunoprecipitation, blot
T1 construct: expressed in transfected cells; host or cells: Cos 7
Protocol: (§1) The ability of p85α mutants to bind to p110α was assessed. Cos 7 cells were transiently transfected with nucleic acid encoding N-terminally HA-tagged p85α protein (either wild-type or mutant, as indicated in Table 2 below) and with nucleic acid encoding p110α (either wild-type or mutant, as indicated in Table 2 below). Proteins were immunoprecipitated using HA beads, separated by SDS-PAGE, transferred to nitrocellulose, and detected using anti-HA and anti-p110α antibodies. Binding of p85α to p110α is indicated as either “yes” (“Y”) or “no” (“N”) in Table 2. In the second row of Table 2, the term “p85 Dominant Negative” refers to a known dominant negative form of p85α in which the p110α binding domain from amino acids 479-513 is deleted. The remaining mutant forms of p85α listed in the first column of Table 2 were discovered pursuant to this study. In the header row of Table 2, the terms “p110alpha E545K” and “p110alpha H1047R” refer to two known mutational “hot spots” in p110α which result in constitutively active p110α.

p110alpha WT = biological target: T2, p110alpha WT (Homo sapiens, UniProt P42336); assay: as above; format: binding; parameters: key: “yes” (“Y”); “no” (“N”); settings: HA bead immunoprecipitation, blot
T2 construct: expressed in transfected cells; host or cells: Cos 7
Protocol: as §1

p110alpha H1047R = biological target: T3, p110alpha H1047R (Homo sapiens, UniProt P42336, H1047R); assay: as above; format: binding; parameters: key: “yes” (“Y”); “no” (“N”); settings: HA bead immunoprecipitation, blot
T3 construct: expressed in transfected cells; host or cells: Cos 7
Protocol: as §1

wild-type p110α = assay: Fluorescence polarization assay of p110α activity in p85α/p110α complexes, phosphoinositide as substrate; format: biochemical; settings: for p110α activity of the complex compared with the wild type complex (in words): absence of peptide; for Activity of p110α in the complex, No peptide: no phosphotyrosine peptide; for Activity of p110α in the complex, No peptide / Activity of p110α in the complex, Peptide (1 uM): normalized to wild-type complex in the absence of peptide; for Activity of p110α in the complex, Peptide (1 uM): phosphotyrosine (IRS-1) peptide 1 uM
Protocol: The ability of p85α mutant proteins to form active complexes with p110α was also assessed. Complexes consisting of p85α protein (either wild-type or mutant, as indicated in Table 3 below) and wild-type p110α were expressed in baculovirus. Activity of p110α in the complexes was assessed using a fluorescence polarization assay with phosphoinositide as the substrate. The assay was conducted in the absence or presence of a phosphotyrosine peptide (referred to as “peptide” in Table 3 below). That peptide corresponds to a phosphotyrosine-containing region of Insulin Receptor Substrate-1 that binds to the SH2 region of p85α and enhances the activity of the wild-type p85α/p110α complex. See Miled et al., Science, 317:239-242 (2007). The p85α mutants tested in Table 3 have mutations in their C-terminal SH2 domains. The activities were normalized to the value obtained for p110α in the wild-type complex in the absence of peptide.

T2 sequence (P42336 whole entry): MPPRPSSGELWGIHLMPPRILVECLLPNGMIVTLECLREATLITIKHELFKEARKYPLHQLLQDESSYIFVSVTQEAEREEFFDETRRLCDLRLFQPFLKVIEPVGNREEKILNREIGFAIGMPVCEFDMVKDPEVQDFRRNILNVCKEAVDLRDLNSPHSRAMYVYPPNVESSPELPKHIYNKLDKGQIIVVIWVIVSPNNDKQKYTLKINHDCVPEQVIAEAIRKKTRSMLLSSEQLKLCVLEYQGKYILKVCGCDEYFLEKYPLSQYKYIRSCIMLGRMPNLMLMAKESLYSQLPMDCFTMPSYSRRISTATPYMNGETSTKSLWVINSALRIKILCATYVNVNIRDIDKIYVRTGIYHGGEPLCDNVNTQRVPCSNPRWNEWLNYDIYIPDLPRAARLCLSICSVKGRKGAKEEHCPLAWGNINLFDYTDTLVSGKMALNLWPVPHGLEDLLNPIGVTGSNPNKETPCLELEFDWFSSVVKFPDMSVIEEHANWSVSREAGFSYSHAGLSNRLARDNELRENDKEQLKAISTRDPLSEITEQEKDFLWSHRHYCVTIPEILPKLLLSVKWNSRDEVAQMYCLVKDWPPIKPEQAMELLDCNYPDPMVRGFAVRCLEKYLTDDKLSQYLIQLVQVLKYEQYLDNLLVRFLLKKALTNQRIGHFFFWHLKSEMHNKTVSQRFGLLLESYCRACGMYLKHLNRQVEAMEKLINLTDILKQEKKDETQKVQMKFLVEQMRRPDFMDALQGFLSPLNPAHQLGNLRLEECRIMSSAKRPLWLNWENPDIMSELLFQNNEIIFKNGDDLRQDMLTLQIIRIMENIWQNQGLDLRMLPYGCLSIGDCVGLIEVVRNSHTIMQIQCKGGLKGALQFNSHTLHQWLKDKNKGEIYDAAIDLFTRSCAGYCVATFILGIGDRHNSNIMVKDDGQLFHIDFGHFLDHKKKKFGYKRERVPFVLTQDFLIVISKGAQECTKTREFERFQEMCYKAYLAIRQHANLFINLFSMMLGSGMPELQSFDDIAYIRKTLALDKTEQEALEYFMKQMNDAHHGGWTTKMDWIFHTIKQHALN
T3 sequence (P42336 whole entry H1047R): as the sequence (P42336 whole entry) above, with H1047R counted along it
T1 sequence (P42336 whole entry E545K): as the sequence (P42336 whole entry) above, with E545K counted along it

Molecule | Binding of p85α to p110α (p110alpha E545K) | Binding of p85α to p110α (p110alpha WT) | Binding of p85α to p110α (p110alpha H1047R) | p110α activity of the complex compared with the wild type complex (in words) (wild-type p110α) | Activity of p110α in the complex, No peptide (wild-type p110α) | Activity of p110α in the complex, Peptide (1 uM) (wild-type p110α)
p85 R543I: mutant form of p85α discovered pursuant to this study | Y | Y | Y |  |  | 
p85 E666K: mutant form of p85α discovered pursuant to this study | Y | Y | Y | comparable to that seen in the wild type complex | 0.92 | 2.54
p85 N285H: mutant form of p85α discovered pursuant to this study | Y | Y | Y |  |  | 
p85 N564D: mutant form of p85α discovered pursuant to this study | Y | Y | Y | increased p110α activity | 1.71 | 2.47
p85 R574I: mutant form of p85α discovered pursuant to this study | Y | Y | Y |  |  | 
p85 Dominant Negative: known dominant negative form of p85α in which the p110α binding domain from amino acids 479-513 is deleted [reference compound] | N | N | N |  |  | 
p85 A682V: mutant form of p85α discovered pursuant to this study | Y | Y | Y |  |  | 
p85 WT: wild-type p85α, regulatory subunit of PI3K encoded by PIK3R1 [reference compound] |  |  |  |  | 1 | 2.77
p85 N527K: mutant form of p85α discovered pursuant to this study | Y | Y | Y | decreased p110α activity | 0.75 | 1.92
p85 R162stop: mutant form of p85α discovered pursuant to this study; truncated (protein, left off: small tags and cut ends, mutant form of p85α discovered pursuant to this study; truncated) MSAEGYQYRALYDYKKEREEDIDLHLGDILTVNKGSLVALGFSDGQEARPEEIGWLNGYNETTGERGDFPGTYVEYIGRKKISPPTPKPRPPRPLPVAPGSSKTEADVEQQALTLPDLAEQFAPPDIAPPLLIKLVEAIEKKGLECSTLYRTQSSSNLAEL | N | N | N |  |  | 

Further lines, with some results ahead:

Binding of p85α to p110α (p110alpha E545K) | Binding of p85α to p110α (p110alpha WT) | Binding of p85α to p110α (p110alpha H1047R) | Molecule | p110α activity of the complex compared with the wild type complex (in words) (wild-type p110α) | Activity of p110α in the complex, No peptide (wild-type p110α) | Activity of p110α in the complex, Peptide (1 uM) (wild-type p110α)
N | N | N | p85 R348stop: mutant form of p85α discovered pursuant to this study; truncated |  |  | 
Y | Y | Y | p85 L449S: mutant form of p85α discovered pursuant to this study |  |  | 
Y | Y | Y | p85 R642stop: mutant form of p85α discovered pursuant to this study |  |  | 
Y | Y | Y | p85 R649Q: mutant form of p85α discovered pursuant to this study | decreased p110α activity | 0.45 | 1.7
